Laboratory results published in the DeepSol protein solubility set.

Assay: soluble on expression in E. coli; label from the status in PepcDB or PDB records

| Sequence | soluble on expression in E. coli |
| --- | --- |
| MSILHMPLKIKDITIKNRIMMSPMCMYSASTDGMPNDWHIVHYATRAIGGVGLIMQEATAVESRGRITDHDLGIWNDEQVKELKKIVDICKANGAVMGIQLAHAGRKCNISYEDVVGPSPIKAGDRYKLPRELSVEEIKSIVKAFGEAAKRANLAGYDVVEIHAAHGYLIHEFLSPLSNKRKDEYGNSIENRARFLIEVIDEVRKNWPENKPIFVRVSADDYMEGGINIDMMVEYINMIKDKVDLIDVSSGGLLNVDINLYPGYQVKYAETIKKRCNIKTSAVGLITTQELAEEILSNERADLVALGRELLRNPYWVLHTYTSKEDWPKQYERAFKKHHHHHH | soluble |
| MSIRLAQVTDIPVLKELLNQIFQVHQTVRPDLFKNTDKGSKYSETELKELLQDESKPIFVYTDGKNRVLGHLFLVIKETKGSSVSKPLKTLFIDDLCVSKEARGQKIGQELFEFALKYAKKLGCYDLTLNVWNDNKGALAFYERQGLKARETKMEKILLEHHHHHH | soluble |
| MSISWGAQYPKLKTNLRLGINRLQLLGKKKTEMAMKARTEIADYIAANKPDRARIRVEHIIREDYVVEAFEILEMYCDLLLARFGLIEQMKTLDDGIAEAVISIMWAAPRLATDIAEFKTISDQLTIKYGKPFAEAARANQLEFPARVNPKIISKLGAAAPPKLLVERYMIEIAAAAGVPFVPDPDVMREDEVHQAEQILIDFKNAGGNGPSGPDGPPPPPSNPYGGSGNDNGSSGGGGGYGWNLENQSAIGSGVMPHGTAIGGGVQPVSNFIPPPPNRHPNEPPQDDENIYDHIPDVSGGNIYEVPSRDHYDFPPDAFNEEPPKTNPTTGVINLPKIGPNGLPIYPGQQQPKGPGGAQAYPALSQRNSLVNPNLQPNHPTAPPQSLRKPDDFSDLSFPEPPSSFVGGNNKPGGPGGNNGGGAGNGGFDDFDDLARRFEELKKIK | not soluble |
| MSIVSLAKQSGLSVSSISAYENNKRQPKIESLQKISKVLGVSSAYLNGMSEEKNILNVNSQSLKNNTIDIDVIGFLLNVRSTYPGKVPIFIQDVLAGAPIYIDDNGNKLDAKKRKLLITFLKTLLN | not soluble |
| MSIYSKILVVADINHDEQPALARAMQLAQKSTSVSHITFFLSIYDFSYDMTSMLSLEERDAMRKGVIHQREQWMRSIAEPYLDKSVQFDIKVVWHNRPYEAIIGEIFAGEHDILIKATRKHDMLESVIFTPTDWHLMRKCPTPVLLVKNADWPENANIIASVHVGSELDTHIDLNDRMVEQLLNLSKRLGASPYLVNAYPVTPANITIELPEFDPTTYTDAVRGHHLTAMKALRQKHGLSEEQTLVQQGLPEDVIPEAAKQLNAAMVILGTTGRTGLSAVFIGNTAEHVIDKINCDVLALKPNGYVSPLDPQTAI | not soluble |
| MSKAKAPINTDELKQKYGRVYEIRIEGLEYENGEEAEFVFYFTRPKVSDISRFTKELNSKPDMAMKNLTFSCIVPEQEEELRQAAEEFPGLTFNTASRLMEIVGASAATSLKKL | soluble |
| MSKEGDILKPEEETMEFPEGDKVKVILSKEDFEASLKEAGERLVAVDFSATWCGPCRTIRPFFHALSVKHEDVVFLEVDADNCEEVVRECAIMCVPTFQFYKKEEKVDELCGALKEKLEAVIAELK | soluble |
| MSKFNRIHLVVLDSVGIGAAPDADKFFNAGVADTDSDTLGHISEAAGLSVPNMAKIGLGNISRPIPLKTVPTEDNPTGYVTKLEEVSLGKDTMTGHWEIMGLNITEPFDTFWNGFPEEILTKIEEFSGRKIIREANKPYSGTAVIDDFGPRQMETGELIVYTSADPVLQIAAHEDIIPVEELYKICEYARSITLERPALLGRIIARPYVGDPGNFTRTANRHDYAVSPFQDTVLNKLADAGVPTYAVGKINDIFNGSGITNDMGHNKSNSHGIDTLIKTLQLPEFTKGFSFTNLVDFDANFGHRRDPEGYRDCLHEFDNRLPEIIANMKEDDLLLITADHGNDPTYAGTDHTREYIPLLAYSVSFTGNGLIPQGHFADISATVAENFGVDTAMIGESFLSHLK | not soluble |
| MSKHKVSPATIAKNKKALHDYTILEKFEAGIVLQGWEVKSIRAGKVQMVDSHVHIKHGEAWLFNCLITPLLSASTHVVADAAATRKLLLNRREINKIMGRIEQKGFTCIPLSMYWKGPRVKVEIALAQGKKVHDKRQAQKDKDWAREKDRLFKKAYK | not soluble |
| MSKIASEVVATTLNDWYIAIKKQKVDESIKYYSEIKKLFDEMEEDQEVLAYYSLLEERHKMLLHSSRGEPLQKHTYFTEDNQNFITKTNDKLEYNFYLFEAMYEAYNKNYDRAINLYGLAEKKLAEIPDEIEAAEFYSKVSYLYTLVKQSIVAQHYIKNAISIYKRHPDYKCKLATSTMIAAANYADMKRFEEAEQYYLEAIDIAKETKDEFLKAQLFHNLSIVYSDWNKPDKCIESLEKAIGNESWLHSIYYINSLFMMIKELFKIDEKMKAINFYNKAQERLILMENKVYEAKISILYNLYCGELKNNFNNCISNIEFLKQQNELESVDELSYIAAKRFESIGAFEEATSFFNAKIWAE | soluble |
| MSKILVFGHQNPDSDAIGSSYAFAYLAREAYGLDTEAVALGEPNEETAFVLDYFGVAAPRVITSAKAEGAEQVILTDHNEFQQSVADIAEVEVYGVVDHHRVANFETASPLYMRLEPVGSASSIVYRMFKEHGVAVPKEIAGLMLSGLISDTLLLKSPTTHPTDKVIAPELAELAGVNLEEYGLAMLKAGTNLASKSAEELIDIDAKTFELNGNNVRVAQVNTVDIAEVLERQAEIEAAIEKAIADNGYSDFVLMITDIINSNSEILAIGSNMDKVEAAFNFVLENNHAFLAGAVSRKKQVVPQLTESFNA | soluble |
| MSKIRVLSVDDSALMRQIMTEIINSHSDMEMVATAPDPLVARDLIKKFNPDVLTLDVEMPRMDGLDFLEKLMRLRPMPVVMVSSLTGKGSEVTLRALELGAIDFVTKPQLGIREGMLAYSEMIAEKVRTAARARIAAHKPMAAPTTLKAGPLLSSEKLIAIGASTGGTEAIRHVLQPLPLSSPAVIITQHMPPGFTRSFAERLNKLCQISVKEAEDGERVLPGHAYIAPGDKHMELARSGANYQIKIHDGPPVNRHRPSVDVLFHSVAKHAGRNAVGVILTGMGNDGAAGMLAMYQAGAWTIAQNEASCVVFGMPREAINMGGVSEVVDLSQVSQQMLAKISAGQAIRI | soluble |
| MSKLDLGRVDLLSMLGNSSSAGVDTAKGVIPFSTSGATWAVPRLSEDGITSHFLRRRGYVTMTQGGSRDQNAAVRKILSLIIAYDIQTQACFFISNEESMRITMAETMGVKDRPNARTNSWAEVSDSDINRGIAKALKEGNLTLDENQKDGFMKLVHAFVADILAQSGHYKPVTSVTYFSAPIDMESDYLDPFSIAIIRDVLDDSPFSELRYDARAMSELEDRDVPITRFSRVMAQMGNAMVRNIMVLNEAAQRKLRGLAVVGEIVHGRVRAPVRYLNDSFIQTLRSNINFHLLTRTTPERWAQSWIQAFGSLKGWVDAINGIADATTEEEKKKLAMQTSMDLELLSDLTPLIRDAATSVEKFVTFAPLSFYQGLGSVTQIRALDSSTNLAAVIVRYAAKEINLIPAYQSFQVPTVDVGVKKTAIMDQRLSLQLPEFSEDQFFGMLEQRMQNMSDSEVAELVDRIAKGETPFGDVVKQLPGTSTLLVTNGYYMGGLLTNEDKIIPGDASVPALLYMQAASFASSVRFPPGEYPVFHHESSNGDVRLTDQVSADAQLSHSAVETANPLNFLVACNVSVHTPSIAIDIIEPMPDLTRRGTTEYVHKGEIKVAAIPSLPPKSADRKAQVSRETAKFERVLYKARKGGAQVAAPIDLESLFGIAVNLAVPTVKHVYSPDSKTKLALDIIKGLESEGDKAAATRLLMTLARAYTGTYSSLGLRRRDEITGIAAQPSDVAMQEFALQSGVQTLKAVAKHTGIMEVATIEMVEEKVRSLDDNRFYEIAAEVVLRALKGM | not soluble |
| MSKLVVIGGGPAGYVAAITAAQNGKNVTLIDEADLGGTCLNVGCMPTKSLLESAEVHDIVRKSNHYGVTLNNGSISIDWKQMQVRKSQIVTQLVQGIQYLMKKNKIKVIQGKAKFETDHRVRVTYGDKEIVVDGEQFIIATGSEPTELPFAPFDGKWILNSTHAMSLKNIPKSLLIVGGGVIGCEFASIYSRLGTKVTIVEMAPQLLPGEDEDIAHILRGKLENDGVKIFTGATLKGLNSYKKQALFEYEGGIQEVNPEFVLVSVGRKPRVQQLNLEKAGIQYSNKGISVNEHMQTNVSHIYAAGDVIGGIQLAHVAFHEGTTAALYASGEDVKVNYHAVPRCIYTAPEIASVGLTEKDAKEQYGDIQIGEFPFTANGKALIIGEQTGKVKVIVEPKYQEIVGISIIGPRATELIGQGTVMIHTEVTADIMRDYIAAHPTLSESIHEALLQAVGHAVHA | not soluble |
| MSKNLLIELGLEELPAYVVTPSEKQLGERLATFLTENRLSFEDIQTFSTPRRLAVRVSGLADQQTDLTEDFKGPAKKIALDADGNFSKAAQGFVRGKGLTTDAIEFREVKGEEYVYVTKHEAGKPAKEVLLGVTEVLSAMTFPVSMHWANNSFEYIRPVHTLTVLLNDEALELDFLDIHSGRVSRGHRFLGTETTITSADSYEADLRSQFVIADAKERQEMIVEQIKTLEVEQGVQVDIDEDLLNEVLNLVEFPTAFMGSFEAKYLDVPEEVLVTSMKNHQRYFVVRDQAGHLMPNFVSVRNGNDQAIENVIKGNEKVLVARLEDGEFFWREDQKLQIADLVAKLTNVTFHEKIGSLAEHMDRTRVIAASLAKEANLSAEEVTAVDRAAQIYKFDLLTGMVGEFDELQGIMGEKYALLAGEDAAVATAIREHYLPDAAGGALPETKVGAVLALAAKLDTLLSFFSVGLIPSGSNDPYALRRATQGIVRILDHFGWRIPMDKLVDSLYDLSFDSLTYANKADVMNFIRARVDKMMGKAAPKDIREAILASSTFV | not soluble |
| MSKPMKILLANPRGFCAGVDRAISIVERALELYQPPIYVRHEVVHNRFVVEGLKQRGARFVEELNEVPDDNIVIFSAHGVSQAVRQEAKERSLTVFDATCPLVTKVHMEVARASRKHMEVVLIGHAGHPEVEGTMGQYASDTGGMYLVEKPEDVVSLQAKVKDPSNLHYVSQTTLSVDETADVIDELRRVFPKIQGPRKDDICYATQNRQDAVRILAEQVDVMVVVGSKNSSNSTRLKELAEKLGTPGYLIDCPQDIDPEWFVDAQLIGVTAGASAPEELVNQILDRIKELGATSVEEVLGREENMFFEVPKELQIKQVD | soluble |
| MSKTHPPELKKYMDKEMDLKLNGNRRVSGILRGFDPFMNMVIDEAVEYQKDGGSVNLGMTVIRGNSVVIMEPKERIS | not soluble |
| MSKTTQSRETTLAGHPVEYEVRRSEDATEPRIDIDIRGVTVVLPAESEESPEALLSENLNWVLETKRTYERHRERAPERRFEPGAAFPYLGDDHEIVVEPRPAHGVGDGEIRLRQSTVDQSSLKRVLENFYRSRAREHLTDRTDALADSMNHTYDRIELRNQRTRWGSCSTNGVLSFNWRLVMAPPDVIDYVVVHELAHLRESGHNDRFWRLVEMEIPEYRELSDWLDTNSVDLIFSKDDLLEHHHHHH | soluble |
| MSLAADTPTTCCFSYTSRQIPQNFIADYFETSSQCSKPGVIFLTKRSRQVCADPSEEWVQKYVSDLELSA | soluble |
| MSLAANTQDVEITIPQGASLYQVSERLYDEGVIRSRLWFRYQGKISQADRNIRPGAYTFSPDTDLEEIFTLLQKGVPEQPVIMTIPEGFTLYEIAQRVESLGFGLAEEFIKATQDYFKSRDYSFDTSELYFEMEGYLYPDTYHLKKNQDMKAIVHSLVSPIDAFFSEEYIKRAEELGLSLHEVLTIASIIEREAYHDEERATVSGVIFNRLGIRMSLQIDATVIYGLGEGKEHRNRVLYADLETPNPFNTYMNTGIPPGPIAAPSKASIHATLYPEDHSYLYYVLGEGGHVFSETYQEHLKHVDAYRRRINEGHHHHHH | not soluble |
